Source: paper PMC3137622

Experiments:
[1] = molecular target: monoclonal antibody 7C11 (anti-Bla g 2); experiment: competition ELISA; settings: chain shown with the change, solid phase rBla g 2-N93Q, read off a plot
[2] = molecular target: monoclonal antibody 7C11 (anti-Bla g 2); experiment: ELISA dose-response; settings: chain shown with the change; allergen concentration 100 ng/ml; parent: est. 1.8; read off a plot
[3] = molecular target: monoclonal antibody 4C3 (anti-Bla g 2); experiment: competition ELISA; settings: chain shown with the change, solid phase rBla g 2-N93Q, read off a plot
Chain of monoclonal antibody 4C3 (anti-Bla g 2) (chain, as listed by the source, chain 1 of 2): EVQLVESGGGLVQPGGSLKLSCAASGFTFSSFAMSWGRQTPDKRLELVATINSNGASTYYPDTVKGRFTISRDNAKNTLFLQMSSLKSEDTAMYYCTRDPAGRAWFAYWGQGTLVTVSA
Chain of monoclonal antibody 4C3 (anti-Bla g 2) (chain, as listed by the source, chain 2 of 2): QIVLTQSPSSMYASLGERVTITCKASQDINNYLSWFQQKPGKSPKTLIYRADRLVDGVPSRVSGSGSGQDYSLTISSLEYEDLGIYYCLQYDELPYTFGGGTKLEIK

[4] = molecular target: monoclonal antibody 4C3 (anti-Bla g 2); experiment: ELISA dose-response; settings: chain shown with the change, read off a plot
[5] = competitor concentration 0.1 µg/ml, parent: est. 47
[6] = competitor concentration 1 µg/ml, parent: est. 5
[7] = competitor concentration 100 µg/ml, parent: est. 1
[8] = allergen concentration 100 ng/ml, parent: est. 0.48
[9] = competitor concentration 0.1 µg/ml, parent: est. 82
[10] = competitor concentration 1 µg/ml, parent: est. 32
[11] = competitor concentration 10 µg/ml, parent: est. 5
[12] = allergen concentration 100 ng/ml, parent: est. 1.5
[13] = allergen concentration about 400 ng/ml (highest point of the series), parent: est. 1.9
[14] = competitor concentration 0.1 µg/ml
[15] = competitor concentration 1 µg/ml
[16] = allergen concentration 100 ng/ml, parent: est. 1.3

Chain of monoclonal antibody 7C11 (anti-Bla g 2) (chain, as listed by the source, chain 2 of 2, other chains not shown): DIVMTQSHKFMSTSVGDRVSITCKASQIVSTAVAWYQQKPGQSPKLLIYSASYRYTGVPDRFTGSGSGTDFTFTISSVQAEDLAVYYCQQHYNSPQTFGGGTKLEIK

B1: recombinant Bla g 2-N93Q R83A (protein)
chain: VPLYKLVHVFINTQYAGITKIGNQNFLTVFDSTSCNVVVASQECVGGACVCPNLQKYEKLKPKYISDGNVQVKFFDTGSAVGAGIEDSLTISQLTTSQQDIVLADELSQEVCILSADVVVGIAAPGCPNALKGKTVLENFVEENLIAPVFSIHHARFQDGEHFGEIIFGGSDWKYVDGEFTYVPLVGDDSWKFRLDGVKIGDTTVAPAGTQAIIDTSKAIIVGPKAYVNPINEAIGCVVEKTTTRRICKLDCSKIPSLPDVTFVINGRNFNISSQYYIQQNGNLCYSGFQPCGHSDHFFIGDFFVDHYYSEFNWENKTMGFGRSVESV
B1 was tested, and the other: Biotinylated mAb 7C11 bound to Bla g 2 (%) [1, 5] was 82%, the other: Biotinylated mAb 7C11 bound to Bla g 2 (%) [1, 6] was 13% and the response (Absorbance (405 nm)) [2] was 1.5.

B2: recombinant Bla g 2-N93Q E86A (protein)
chain: VPLYKLVHVFINTQYAGITKIGNQNFLTVFDSTSCNVVVASQECVGGACVCPNLQKYEKLKPKYISDGNVQVKFFDTGSAVGRGIADSLTISQLTTSQQDIVLADELSQEVCILSADVVVGIAAPGCPNALKGKTVLENFVEENLIAPVFSIHHARFQDGEHFGEIIFGGSDWKYVDGEFTYVPLVGDDSWKFRLDGVKIGDTTVAPAGTQAIIDTSKAIIVGPKAYVNPINEAIGCVVEKTTTRRICKLDCSKIPSLPDVTFVINGRNFNISSQYYIQQNGNLCYSGFQPCGHSDHFFIGDFFVDHYYSEFNWENKTMGFGRSVESV
For B2, the other: Biotinylated mAb 7C11 bound to Bla g 2 (%) [1, 5] was 82%, the other: Biotinylated mAb 7C11 bound to Bla g 2 (%) [1, 6] was 18% and the response (Absorbance (405 nm)) [2] was 1.5.

B3: recombinant Bla g 2-N268Q E233R; I199W (protein)
chain: VPLYKLVHVFINTQYAGITKIGNQNFLTVFDSTSCNVVVASQECVGGACVCPNLQKYEKLKPKYISDGNVQVKFFDTGSAVGRGIEDSLTISNLTTSQQDIVLADELSQEVCILSADVVVGIAAPGCPNALKGKTVLENFVEENLIAPVFSIHHARFQDGEHFGEIIFGGSDWKYVDGEFTYVPLVGDDSWKFRLDGVKWGDTTVAPAGTQAIIDTSKAIIVGPKAYVNPINRAIGCVVEKTTTRRICKLDCSKIPSLPDVTFVINGRNFQISSQYYIQQNGNLCYSGFQPCGHSDHFFIGDFFVDHYYSEFNWENKTMGFGRSVESV
B3 gave an other: Biotinylated mAb 4C3 bound to Bla g 2 (%) ([3]; competitor concentration 0.1 µg/ml, parent: est. 88) of 93%, an other: Biotinylated mAb 4C3 bound to Bla g 2 (%) ([3]; competitor concentration 1 µg/ml, parent: est. 46) of 82% and an other: Biotinylated mAb 4C3 bound to Bla g 2 (%) ([3]; competitor concentration 10 µg/ml, parent: est. 7) of 78%. The other: Biotinylated mAb 4C3 bound to Bla g 2 (%) [3, 7] was 62%, the response (Absorbance (405 nm)) [4, 8] was 0.2 and the response (Absorbance (405 nm)) ([4]; allergen concentration about 400 ng/ml (highest point of the series), parent: est. 1.1) was 0.4.

B4: recombinant Bla g 2-N268Q E233R (protein)
chain: VPLYKLVHVFINTQYAGITKIGNQNFLTVFDSTSCNVVVASQECVGGACVCPNLQKYEKLKPKYISDGNVQVKFFDTGSAVGRGIEDSLTISNLTTSQQDIVLADELSQEVCILSADVVVGIAAPGCPNALKGKTVLENFVEENLIAPVFSIHHARFQDGEHFGEIIFGGSDWKYVDGEFTYVPLVGDDSWKFRLDGVKIGDTTVAPAGTQAIIDTSKAIIVGPKAYVNPINRAIGCVVEKTTTRRICKLDCSKIPSLPDVTFVINGRNFQISSQYYIQQNGNLCYSGFQPCGHSDHFFIGDFFVDHYYSEFNWENKTMGFGRSVESV
With B4 the response (Absorbance (405 nm)) [4, 8] was 1.2.

B5: recombinant Bla g 2-N93Q E233R; I199W (protein)
chain: VPLYKLVHVFINTQYAGITKIGNQNFLTVFDSTSCNVVVASQECVGGACVCPNLQKYEKLKPKYISDGNVQVKFFDTGSAVGRGIEDSLTISQLTTSQQDIVLADELSQEVCILSADVVVGIAAPGCPNALKGKTVLENFVEENLIAPVFSIHHARFQDGEHFGEIIFGGSDWKYVDGEFTYVPLVGDDSWKFRLDGVKWGDTTVAPAGTQAIIDTSKAIIVGPKAYVNPINRAIGCVVEKTTTRRICKLDCSKIPSLPDVTFVINGRNFNISSQYYIQQNGNLCYSGFQPCGHSDHFFIGDFFVDHYYSEFNWENKTMGFGRSVESV
Work on B5 yielded an other: Biotinylated mAb 4C3 bound to Bla g 2 (%) [3, 9] of 100%, an other: Biotinylated mAb 4C3 bound to Bla g 2 (%) [3, 10] of 100% and an other: Biotinylated mAb 4C3 bound to Bla g 2 (%) [3, 11] of 69%. The other: Biotinylated mAb 4C3 bound to Bla g 2 (%) [3, 7] was 22%, the response (Absorbance (405 nm)) [4, 12] was 0.14 and the response (Absorbance (405 nm)) [4, 13] was 0.27.

B6: recombinant Bla g 2-N93Q D248A (protein)
chain: VPLYKLVHVFINTQYAGITKIGNQNFLTVFDSTSCNVVVASQECVGGACVCPNLQKYEKLKPKYISDGNVQVKFFDTGSAVGRGIEDSLTISQLTTSQQDIVLADELSQEVCILSADVVVGIAAPGCPNALKGKTVLENFVEENLIAPVFSIHHARFQDGEHFGEIIFGGSDWKYVDGEFTYVPLVGDDSWKFRLDGVKIGDTTVAPAGTQAIIDTSKAIIVGPKAYVNPINEAIGCVVEKTTTRRICKLACSKIPSLPDVTFVINGRNFNISSQYYIQQNGNLCYSGFQPCGHSDHFFIGDFFVDHYYSEFNWENKTMGFGRSVESV
B6 showed an other: Biotinylated mAb 4C3 bound to Bla g 2 (%) [3, 9] of 48%, an other: Biotinylated mAb 4C3 bound to Bla g 2 (%) [3, 10] of 7% and a response (Absorbance (405 nm)) [4, 12] of 1.8.

B7: recombinant Bla g 2-N93Q K251A (protein)
chain: VPLYKLVHVFINTQYAGITKIGNQNFLTVFDSTSCNVVVASQECVGGACVCPNLQKYEKLKPKYISDGNVQVKFFDTGSAVGRGIEDSLTISQLTTSQQDIVLADELSQEVCILSADVVVGIAAPGCPNALKGKTVLENFVEENLIAPVFSIHHARFQDGEHFGEIIFGGSDWKYVDGEFTYVPLVGDDSWKFRLDGVKIGDTTVAPAGTQAIIDTSKAIIVGPKAYVNPINEAIGCVVEKTTTRRICKLDCSAIPSLPDVTFVINGRNFNISSQYYIQQNGNLCYSGFQPCGHSDHFFIGDFFVDHYYSEFNWENKTMGFGRSVESV
B7 was tested, and the other: Biotinylated mAb 4C3 bound to Bla g 2 (%) [3, 9] was 100%, the other: Biotinylated mAb 4C3 bound to Bla g 2 (%) [3, 10] was 100% and the other: Biotinylated mAb 4C3 bound to Bla g 2 (%) [3, 11] was 93%. It also gave an other: Biotinylated mAb 4C3 bound to Bla g 2 (%) [3, 7] of 60%, a response (Absorbance (405 nm)) [4, 12] of 0.14 and a response (Absorbance (405 nm)) [4, 13] of 0.27.

B8: natural Bla g 2 N268Q (protein)
chain: VPLYKLVHVFINTQYAGITKIGNQNFLTVFDSTSCNVVVASQECVGGACVCPNLQKYEKLKPKYISDGNVQVKFFDTGSAVGRGIEDSLTISNLTTSQQDIVLADELSQEVCILSADVVVGIAAPGCPNALKGKTVLENFVEENLIAPVFSIHHARFQDGEHFGEIIFGGSDWKYVDGEFTYVPLVGDDSWKFRLDGVKIGDTTVAPAGTQAIIDTSKAIIVGPKAYVNPINEAIGCVVEKTTTRRICKLDCSKIPSLPDVTFVINGRNFQISSQYYIQQNGNLCYSGFQPCGHSDHFFIGDFFVDHYYSEFNWENKTMGFGRSVESV
Work on B8 yielded an other: Biotinylated mAb 4C3 bound to Bla g 2 (%) [3, 14] of 88%, an other: Biotinylated mAb 4C3 bound to Bla g 2 (%) [3, 15] of 46% and an other: Biotinylated mAb 4C3 bound to Bla g 2 (%) ([3]; competitor concentration 10 µg/ml) of 7%. For the same binder, the response (Absorbance (405 nm)) [4, 16] was 0.48.

B9: recombinant Bla g 2-N93Q E233A (protein)
chain: VPLYKLVHVFINTQYAGITKIGNQNFLTVFDSTSCNVVVASQECVGGACVCPNLQKYEKLKPKYISDGNVQVKFFDTGSAVGRGIEDSLTISQLTTSQQDIVLADELSQEVCILSADVVVGIAAPGCPNALKGKTVLENFVEENLIAPVFSIHHARFQDGEHFGEIIFGGSDWKYVDGEFTYVPLVGDDSWKFRLDGVKIGDTTVAPAGTQAIIDTSKAIIVGPKAYVNPINAAIGCVVEKTTTRRICKLDCSKIPSLPDVTFVINGRNFNISSQYYIQQNGNLCYSGFQPCGHSDHFFIGDFFVDHYYSEFNWENKTMGFGRSVESV
Work on B9 yielded an other: Biotinylated mAb 4C3 bound to Bla g 2 (%) [3, 10] of 58%, an other: Biotinylated mAb 4C3 bound to Bla g 2 (%) [3, 11] of 15% and a response (Absorbance (405 nm)) [4, 12] of 1.

B10: recombinant Bla g 2-N93Q E233R (protein)
chain: VPLYKLVHVFINTQYAGITKIGNQNFLTVFDSTSCNVVVASQECVGGACVCPNLQKYEKLKPKYISDGNVQVKFFDTGSAVGRGIEDSLTISQLTTSQQDIVLADELSQEVCILSADVVVGIAAPGCPNALKGKTVLENFVEENLIAPVFSIHHARFQDGEHFGEIIFGGSDWKYVDGEFTYVPLVGDDSWKFRLDGVKIGDTTVAPAGTQAIIDTSKAIIVGPKAYVNPINRAIGCVVEKTTTRRICKLDCSKIPSLPDVTFVINGRNFNISSQYYIQQNGNLCYSGFQPCGHSDHFFIGDFFVDHYYSEFNWENKTMGFGRSVESV
With B10 the other: Biotinylated mAb 4C3 bound to Bla g 2 (%) [3, 9] was 72% and the response (Absorbance (405 nm)) [4, 12] was 1.7.

B11: natural Bla g 2 N93Q (protein)
chain: VPLYKLVHVFINTQYAGITKIGNQNFLTVFDSTSCNVVVASQECVGGACVCPNLQKYEKLKPKYISDGNVQVKFFDTGSAVGRGIEDSLTISQLTTSQQDIVLADELSQEVCILSADVVVGIAAPGCPNALKGKTVLENFVEENLIAPVFSIHHARFQDGEHFGEIIFGGSDWKYVDGEFTYVPLVGDDSWKFRLDGVKIGDTTVAPAGTQAIIDTSKAIIVGPKAYVNPINEAIGCVVEKTTTRRICKLDCSKIPSLPDVTFVINGRNFNISSQYYIQQNGNLCYSGFQPCGHSDHFFIGDFFVDHYYSEFNWENKTMGFGRSVESV
B11 was tested, and the other: Biotinylated mAb 4C3 bound to Bla g 2 (%) [3, 14] was 82%, the other: Biotinylated mAb 4C3 bound to Bla g 2 (%) [3, 15] was 32% and the response (Absorbance (405 nm)) [4, 16] was 1.5.
